Laboratory results as given in PMC12021056, “MISP Suppresses Ferroptosis via MST1/2 Kinases to Facilitate YAP Activation in Non‐Small Cell Lung Cancer” (Advanced Science, 2025).

Legend:
[1] = molecular target: T1, His-MST1 (aa301-487) (UniProt Q13043 301-487); assay: pull-down; 2 µg GST or GST-MISP (aa352-524) incubated with 2 µg His-MST1 (aa301-487) or His-MST2 (aa279-491) for 12 h at 4 °C; SDS-PAGE and Coomassie blue staining; conditions: both partners purified
T1 construct: MST1 kinase, amino acids 301-487 (holds the C-terminal SARAH domain, aa431-487); also called SARAH domain of MST1; source: E. coli BL21, purified (Ni-NTA agarose)
T1 sequence (looked up): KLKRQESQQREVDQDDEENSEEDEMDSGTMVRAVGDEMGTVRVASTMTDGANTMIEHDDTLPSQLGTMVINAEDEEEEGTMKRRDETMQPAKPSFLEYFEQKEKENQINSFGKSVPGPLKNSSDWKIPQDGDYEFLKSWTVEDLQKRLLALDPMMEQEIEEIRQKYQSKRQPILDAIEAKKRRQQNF

[2] = molecular target: T2, His-MST2 (aa279-491) (UniProt Q13188 279-491); assay: as above; conditions: both partners purified
T2 construct: MST2 kinase, amino acids 279-491 (holds the C-terminal SARAH domain); also called SARAH domain of MST2; source: E. coli BL21, purified (Ni-NTA agarose)
T2 sequence (looked up): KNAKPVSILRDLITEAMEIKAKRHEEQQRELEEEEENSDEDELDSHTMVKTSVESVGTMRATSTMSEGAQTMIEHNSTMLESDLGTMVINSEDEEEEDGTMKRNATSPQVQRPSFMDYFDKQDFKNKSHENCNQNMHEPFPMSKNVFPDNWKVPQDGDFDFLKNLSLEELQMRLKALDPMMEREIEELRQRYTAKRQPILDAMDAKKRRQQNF

B1: GST-MISP (aa352-524) (domain or fragment, UniProt Q8IVT2 352-524, looked up)
chain: QRDIVQETQREEDHRREGLHVGRASTPDWVSEGPQPGLRRALSSDSILSPAPDARAADPAPEVRKVNRIPPDAYQPYLSPGTPQLEFSAFGAFGKPSSLSTAEAKAATSPKATMSPRHLSESSGKPLSTKQEASKPPRGCPQANRGVVRWEYFRLRPLRFRAPDEPQQAQVPH
notes: source: E. coli BL21, purified (glutathione S-transferase agarose)
- binding result [1]: binds
- binding result [2]: binds
